Experimental data reported in PMC3990689, “Identification and Characterization of ABA Receptors in Oryza sativa” (PLoS ONE, 2014).

Key:
[1] = biological target: T1, OsPYL11 (with OsPP2C09) (Oryza sativa, UniProt Q6I5C3); assay: Ser/Thr phosphatase assay, inhibition of OsPP2C09 by receptor; type: biochemical; conditions: ABA ten fold of OsPYL; OsPP2C09 1.8 µM; read at 630 nm
T1 construct: gene PYL5; recombinant, E. coli BL21(DE3), pET-15b; OsPYL11 monomer; equals OsPYL/RCAR5 of earlier work; with Probable protein phosphatase 2C 9
T1 sequence (Q6I5C3 1-209): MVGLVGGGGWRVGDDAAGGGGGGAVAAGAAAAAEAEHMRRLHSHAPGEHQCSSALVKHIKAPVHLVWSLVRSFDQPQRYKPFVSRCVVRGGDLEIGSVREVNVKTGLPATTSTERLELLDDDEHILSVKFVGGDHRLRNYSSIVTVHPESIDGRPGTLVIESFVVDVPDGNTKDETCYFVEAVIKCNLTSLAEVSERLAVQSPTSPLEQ
T1 sequence (Q5N9N2 1-414 partner): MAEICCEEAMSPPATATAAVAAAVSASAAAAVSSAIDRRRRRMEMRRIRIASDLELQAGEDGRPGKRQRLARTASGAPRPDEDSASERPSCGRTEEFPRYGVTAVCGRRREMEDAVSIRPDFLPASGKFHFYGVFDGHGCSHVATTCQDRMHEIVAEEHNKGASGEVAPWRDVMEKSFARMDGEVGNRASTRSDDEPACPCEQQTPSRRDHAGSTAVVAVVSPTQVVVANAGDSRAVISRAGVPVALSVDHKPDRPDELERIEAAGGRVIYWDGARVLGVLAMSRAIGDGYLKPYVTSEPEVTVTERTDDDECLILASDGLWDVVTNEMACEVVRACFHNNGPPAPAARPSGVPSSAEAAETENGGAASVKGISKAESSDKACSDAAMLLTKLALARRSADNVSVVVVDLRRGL

[2] = biological target: T2, OsPYL2 (Oryza sativa, UniProt Q5Z8S0); assay: isothermal titration calorimetry; type: binding
T2 construct: gene PYL9; recombinant, E. coli BL21(DE3), pET-15b, Ni-NTA; mainly dimer; residues named: K74, F76, V98, L102, P103, A104, S107, E109, V125, L132, E162, F180, V184, N188
T2 sequence (Q5Z8S0 1-207): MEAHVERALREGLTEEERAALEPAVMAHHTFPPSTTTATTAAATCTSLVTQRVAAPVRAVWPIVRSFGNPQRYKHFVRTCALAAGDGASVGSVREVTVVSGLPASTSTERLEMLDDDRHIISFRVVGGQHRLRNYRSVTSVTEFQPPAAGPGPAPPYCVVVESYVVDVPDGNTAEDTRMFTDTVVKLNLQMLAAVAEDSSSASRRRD

[3] = biological target: OsPYL1 (Oryza sativa (japonica cultivar-group)); assay: static light scattering; DAWN HELLOS II (Wyatt) at 18°C; OsPYLs about 2 mg/mL; calibrated with albumin monomer standard; oligomerization state
[4] = biological target: OsPYL1 (Oryza sativa (japonica cultivar-group)); assay: SEC; Superdex-200 HR10/300 GL, 25 mM HEPES pH 7.0, 150 mM NaCl; 500 µL OsPYL (OD280 = 0.75) applied; oligomerization state
[5] = biological target: OsPYL1 (Oryza sativa (japonica cultivar-group)); assay: AUC; sedimentation velocity at 4°C, 40,000 rpm; OsPYL proteins at OD280 = 0.75; absorbance at 280 nm; oligomerization state
[6] = biological target: OsPYL12 (Oryza sativa (japonica cultivar-group)); assay: static light scattering; DAWN HELLOS II (Wyatt) at 18°C; OsPYLs about 2 mg/mL; calibrated with albumin monomer standard; oligomerization state
[7] = biological target: OsPYL12 (Oryza sativa (japonica cultivar-group)); assay: SEC; Superdex-200 HR10/300 GL, 25 mM HEPES pH 7.0, 150 mM NaCl; 500 µL OsPYL (OD280 = 0.75) applied; oligomerization state
[8] = biological target: OsPYL12 (Oryza sativa (japonica cultivar-group)); assay: AUC; sedimentation velocity at 4°C, 40,000 rpm; OsPYL proteins at OD280 = 0.75; absorbance at 280 nm; oligomerization state
[9] = biological target: the molecule itself; assay: SEC; Superdex-200 HR10/300 GL, 25 mM HEPES pH 7.0, 150 mM NaCl; 500 µL OsPYL (OD280 = 0.75) applied; oligomerization state

Which results are given for `CC1=CC(=O)CC(C)(C)C1(O)/C=C/C(C)=C\C(=O)O` (stereo in doubt) [(+)-ABA]?
Ser/Thr phosphatase assay, inhibition of OsPP2C09 by receptor [1]: in the presence of ABA, all of the OsPYLs proteins could completely inhibit; Kd [2]: ~31.3 µM

For OsPYL1 (receptor), which stoichiometry N [3] is on record?
Its stoichiometry N is 2.

What about the stoichiometry N [4] of the same molecule?
Its stoichiometry N is 2.

What about the stoichiometry N [5] of the same molecule?
The stoichiometry N was 2.

For OsPYL12 (receptor), which stoichiometry N [6] is on record?
Its stoichiometry N is 2.

What about the stoichiometry N [7] of the same molecule?
The stoichiometry N was 2.

What about the stoichiometry N [8] of the same molecule?
The stoichiometry N was 2.

B1: OsPYL2 (receptor, Oryza sativa (japonica cultivar-group))
chain: MEAHVERALREGLTEEERAALEPAVMAHHTFPPSTTTATTAAATCTSLVTQRVAAPVRAVWPIVRSFGNPQRYKHFVRTCALAAGDGASVGSVREVTVVSGLPASTSTERLEMLDDDRHIISFRVVGGQHRLRNYRSVTSVTEFQPPAAGPGPAPPYCVVVESYVVDVPDGNTAEDTRMFTDTVVKLNLQMLAAVAEDSSSASRRRD
notes: OsPYL2, ABA receptor (PYR1/PYL/RCAR ortholog) of Oryza sativa (japonica cultivar-group); Dimer when alone in solution (SEC, SLS, AU); stands with OsPP2C06 and ABA in the crystallised ternary complex; source: E. coli BL21 (DE3), vector pET-15b, purified (Ni-NTA, Source-15Q, Superdex-200); for the complex coexpressed with His6-OsPP2C06 (132-467) in E. coli BL21 (DE3) and purified with 0.2 mM (+)-ABA
With B1 as the molecule, how does the “stoichiometry N” value [9] read?
The value was 2.

B2: OsPYL3 (receptor)
chain: ERGRGGVGAEDARGGADEVAARERLEGVVRAHHTFPAAERAAGPGRRPTCTSLVAQRVDAPLAAVWPIVRGFANPQRYKHFIKSCELAAGDGATVGSVREVAVVSGLPASTSTERLEILDDDRHVLSFRVVGGDHRLRNYRSVTSVTEFSSPSSPPRPYCVVVESYVVDVPEGNTEEDTRMFTDTVVKLNLQKLAAVATSSSPPAAGNHH
B2 was tested. Which “stoichiometry N” value [9] did it give?
Its value is 2.
